In patent US9803013B2, “Biological materials and uses thereof” (BioInvent International AB, priority 2005, dated 2017):

Tests used:
Ramos B lymphoma cells = assay: scFv apoptosis assay (cross-linked, 24 h, Annexin V/PI); assay type: cell-based, human
Experimental: Ramos B lymphoma cells were sequentially incubated with anti-Ramos scFv, anti-His mAb, and anti-mouse polyclonal Ab on ice (with intermittent washing to remove excess unbound antibody), and were incubated in a humidified atmosphere of 5% CO2 at 37° C. for 24 hours. Cells were then harvested and subjected to combined staining with Annexin V-AF488 (AV) and propidium iodide (PI). Cells were scored as viable (AV− PI−, filled circles FIG. 2C), early apoptotic (AV+PI−, open triangles FIG. 2C), or late apoptotic/necrotic (AV+PI+, open diamonds FIG. 2C), based on differential positivity for AV and PI staining (defined by square gates in FIG. 2B). […]
Lipopolysaccharide levels of recombinantly produced scFv fragments were reduced using Detoxigel columns according to manufacturer's instructions (Pierce Biotechnology, Rockford, Ill., USA). Remaining endotoxin levels were quantified by the LAL-amebocyte lysate assay (Cambrex Bioscience, Walkersville, Md., USA). […]
Apoptotic cells were, unless otherwise stated, detected by combined staining with Annexin V Alexa Fluor 488 (AV) and Propidium Iodide (PI) (both from Molecular Probes, Invitrogen) and subsequent flow-cytometric analysis, Cells were defined as viable (AV−/PI−), early apoptotic (AV+/PI−) or late apoptotic/necrotic (AV+/PI+). […]

Raji B lymphoma cells = assay: as above; assay type: cell-based, human

B1: scFv B11: scFv clone isolated by differential biopanning, later converted to B11 IgG1 (protein)
scFv (part 1 of 2): EVQLLESGGGLVQPGGSLRLSCAASGFTFSNAWMSWVRQAPGKGLEWVAFIWYDGSNKYYADSVKGRFTISRDNSKNTLYLQMNSLRAEDTAVYYCARYSGWYFDYWGQGTLVTVSS
scFv (part 2 of 2): QSVLTQPPSASGTPGQRVTISCTGSSSNIGAGYDVHWYQQLPGTAPKLLIYDNNNRPSGVPDRFSGSKSGTSASLAISGLRSEDEADYYCQSYDSSLSAWLFGGGTKLTVLG
modifications: left off: small tags and cut ends
notes: scFv clone isolated by differential biopanning, later converted to B11 IgG1
apoptosis induction by scFv (Ramos B lymphoma cells): induced significant apoptosis | apoptosis induction by scFv (Raji B lymphoma cells): induced significant apoptosis
